# Changes are numbered by the printed parent chain. In names and notes the source's numbering stands.
# B1: IL6R-BP210/IL6R-L (antibody, human IgG1, kappa)
# heavy: QVQLQESGPGLVKPSETLSLTCAVSGHSISHDHAWSWVRQPPGEGLEWIGFISYSGITNYNPSLQGRVTISRDNSKNTLYLQMNSLRAEDTAVYYCARSLARTTAMDYWGEGTLVTVSSASTKGPSVFPLAPSSKSTSGGTAALGCLVKDYFPEPVTVSWNSGALTSGVHTFPAVLQSSGLYSLSSVVTVPSSSLGTQTYICNVNHKPSNTKVDKKVEPKSCDKTHTCPPCPAPELLGDDSVFLFPPKPKDTLMISRTPEVTCVVVDVSDEDGEVKFNWYVDGVEVHNAKTKPREEQYNSTYRVVSVLTVLHQDWLNGKEYKCKVSNKALPRPIEKTISKAKGQPREPQVYTLPPSRDELTKNQVSLTCLVKGFYPSDIAVEWESNGQPENNYKTTPPVLDSDGSFFLYSKLTVDKSRWQQGNVFSCSVMHEALHNHYTQESLSLSP
# light: not shown
# B2: IL6R-BP545/IL6R-L (antibody, human IgG1, kappa)
# heavy: B1 heavy with E235D, Y298D, D358E
# light: not shown
# B3: IL6R-BP214/IL6R-L (antibody, human IgG1, kappa)
# heavy: B1 heavy with E235D, L236Y, D270H, G273P, Y298D, K328D, R332K
# light: not shown
# B4: IL6R-BP404/IL6R-L (antibody, human IgG1, kappa)
# heavy: B1 heavy with E235D, L236Y, D270E, Y298D
# light: not shown
# B5: IL6R-BP454/IL6R-L (antibody, human IgG1, kappa, name in EU numbering)
# heavy: B1 heavy with E235D, S269A, D270E, P398K
# light: not shown
# B6: IL6R-BP466/IL6R-L (antibody, human IgG1, kappa)
# heavy: B1 heavy with E235D, Y298D, E335R
# light: not shown
# B7: IL6R-BP449/IL6R-L (antibody, human IgG1, kappa, name in EU numbering)
# heavy: B1 heavy with E235D, S269A, D270E, P398E
# light: not shown
# B8: IL6R-BP544/IL6R-L (antibody, human IgG1, kappa)
# heavy: B1 heavy with E235D, Y298D, R357Q
# light: not shown
# B9: IL6R-BP492/IL6R-L (antibody, human IgG1, kappa)
# heavy: B1 heavy with D239G, V266I, S269A, D270E, R332A
# light: not shown
# B10: variant resulting from adding S267A to IL6R-BP267/IL6R-L (antibody, human IgG1, kappa)
# heavy: B1 heavy with E235D, S269A, D270E, R332A
# light: not shown
# B11: IL6R-BP202/IL6R-L (antibody, human IgG1, kappa)
# heavy: B1 heavy with D270H, K328A
# light: not shown
# B12: variant resulting from adding S267G to IL6R-BP267/IL6R-L (antibody, human IgG1, kappa)
# heavy: B1 heavy with E235D, S269G, D270E, R332A
# light: not shown
# B13: IL6R-BP455/IL6R-L (antibody, human IgG1, kappa, name in EU numbering)
# heavy: B1 heavy with E235D, S269A, D270E, P398L
# light: not shown
# B14: IL6R-BP465/IL6R-L (antibody, human IgG1, kappa)
# heavy: B1 heavy with E235D, Y298D, E335K
# light: not shown
# B15: variant resulting from adding E269D to IL6R-BP267/IL6R-L (antibody, human IgG1, kappa)
# heavy: B1 heavy with E235D, D270E, E271D, R332A
# light: not shown
# B16: IL6R-BP212/IL6R-L (antibody, human IgG1, kappa)
# heavy: B1 heavy with E235D, D239G, Y298D
# light: not shown
# B17: IL6R-BP194/IL6R-L (antibody, human IgG1, kappa)
# heavy: B1 heavy with E235D, L236Y, K328A, R332K
# light: not shown
# B18: IL6R-BP458/IL6R-L (antibody, human IgG1, kappa, name in EU numbering)
# heavy: B1 heavy with E235D, S269A, D270E, P398Q
# light: not shown
# B19: IL6R-BP198/IL6R-L (antibody, human IgG1, kappa)
# heavy: B1 heavy with E235D, L236Y, D239G, K328A, R332K
# light: not shown
# B20: IL6R-BP450/IL6R-L (antibody, human IgG1, kappa, name in EU numbering)
# heavy: B1 heavy with E235D, S269A, D270E, P398F
# light: not shown
# B21: IL6R-BP493/IL6R-L (antibody, human IgG1, kappa)
# heavy: B1 heavy with D239G, V266I, S269A, D270E, Y298D, R332A
# light: not shown
# B22: IL6R-BP448/IL6R-L (antibody, human IgG1, kappa, name in EU numbering)
# heavy: B1 heavy with E235D, S269A, D270E, P398D
# light: not shown
# What was measured:
# [1] = target: T1, FcγRIIb extracellular domain with C-terminal His tag (human, UniProt P31994 43-217); test: SPR, captured antibody, FcgR analyte
# T1 construct: extracellular domain; also called FcgRIIb
# T1 sequence (looked up): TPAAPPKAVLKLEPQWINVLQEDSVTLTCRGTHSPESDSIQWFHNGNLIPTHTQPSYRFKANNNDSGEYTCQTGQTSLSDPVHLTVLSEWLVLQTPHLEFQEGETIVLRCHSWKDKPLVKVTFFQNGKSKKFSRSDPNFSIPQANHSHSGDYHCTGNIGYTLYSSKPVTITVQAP
# Experimental: (§1) Relative binding activities were calculated for the results of analyzing interactions with the respective FcγRs according to the following method.
# [2] = target: T2, FcγRIIa type H extracellular domain with C-terminal His tag (human, UniProt P12318 34-217); test: SPR, captured antibody, FcgR analyte
# T2 construct: extracellular domain; also called FcgRIIaH; FcγRIIa H
# T2 sequence (looked up): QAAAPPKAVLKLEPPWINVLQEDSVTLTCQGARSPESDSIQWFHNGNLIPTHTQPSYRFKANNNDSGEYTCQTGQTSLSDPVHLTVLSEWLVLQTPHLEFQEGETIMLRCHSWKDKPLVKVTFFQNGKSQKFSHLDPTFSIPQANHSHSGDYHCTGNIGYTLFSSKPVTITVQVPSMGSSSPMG
# Experimental: as §1
# [3] = target: T3, FcγRIa extracellular domain with C-terminal His tag (human, UniProt P12314 16-292); test: SPR, captured antibody, FcgR analyte
# T3 construct: also called FcgRIa
# Experimental: as §1
# [4] = target: T4, FcγRIIb extracellular domain with C-terminal His tag (human, UniProt P31994 43-217); test: SPR (Biacore)
# T4 construct: extracellular domain; For crystals it was expressed with kifunensine and trimmed with Endo F1; also called FcgRIIb; FcγRIIb extracellular region
# T4 sequence (looked up): T1 sequence (looked up)
# T3 sequence (P12314 16-292): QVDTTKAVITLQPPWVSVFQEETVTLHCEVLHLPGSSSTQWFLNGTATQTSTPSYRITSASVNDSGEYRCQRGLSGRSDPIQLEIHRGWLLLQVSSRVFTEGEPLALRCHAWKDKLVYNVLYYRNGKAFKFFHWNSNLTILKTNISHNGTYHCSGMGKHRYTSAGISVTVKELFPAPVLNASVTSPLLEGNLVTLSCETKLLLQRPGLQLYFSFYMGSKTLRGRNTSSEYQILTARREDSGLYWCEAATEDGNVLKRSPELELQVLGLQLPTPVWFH
binder,measurement,setting,value
B1,relative binding activity,[1],187 relative (IL6R-BF648/IL6R-L = 100)
same,relative binding activity,[2],279 relative (IL6R-BF648/IL6R-L = 100)
same,relative binding activity,[3],57 relative (IL6R-BF648/IL6R-L = 100)
B2,binding result,[4],binds
B3,relative binding activity,[1],174 relative (IL6R-BF648/IL6R-L = 100)
same,relative binding activity,[2],285 relative (IL6R-BF648/IL6R-L = 100)
same,relative binding activity,[3],36 relative (IL6R-BF648/IL6R-L = 100)
B4,fold increase of binding against IL6R-BP264/IL6R-L,[4],1.1 fold
B5,binding result,[4],binds
B6,binding result,[4],binds
B7,binding result,[4],binds
B8,binding result,[4],binds
B9,binding relative to IL6R-B3/IL6R-L,[4],≥ 100 times
B10,binding result,[4],binds
B11,relative binding activity,[1],185 relative (IL6R-BF648/IL6R-L = 100)
same,relative binding activity,[2],285 relative (IL6R-BF648/IL6R-L = 100)
same,relative binding activity,[3],43 relative (IL6R-BF648/IL6R-L = 100)
B12,binding result,[4],binds
B13,binding result,[4],binds
B14,binding result,[4],binds
B15,binding result,[4],binds
B16,relative binding activity,[1],173 relative (IL6R-BF648/IL6R-L = 100)
same,relative binding activity,[2],135 relative (IL6R-BF648/IL6R-L = 100)
same,relative binding activity,[3],117 relative (IL6R-BF648/IL6R-L = 100)
B17,relative binding activity,[1],178 relative (IL6R-BF648/IL6R-L = 100)
same,relative binding activity,[2],395 relative (IL6R-BF648/IL6R-L = 100)
same,relative binding activity,[3],69 relative (IL6R-BF648/IL6R-L = 100)
B18,binding result,[4],binds
B19,relative binding activity,[1],164 relative (IL6R-BF648/IL6R-L = 100)
same,relative binding activity,[2],188 relative (IL6R-BF648/IL6R-L = 100)
same,relative binding activity,[3],104 relative (IL6R-BF648/IL6R-L = 100)
B20,binding result,[4],binds
B21,binding relative to IL6R-B3/IL6R-L,[4],≥ 100 times
B22,binding result,[4],binds

# Reference: patent US20210261648A1 (published 2021)
